Laboratory results taken from patent publication US20250277057A1 (OKLAHOMA MEDICAL RESEARCH FOUNDATION, published 2025).
Where a chain is given by its changes, count along the chain named.

B1: HAPC-14-6 (antibody, V domains shown)
VH: EVQLVESGGGLVQPGGSLRLSCAASGFTFSFYYLNWVRQAPGKGLEWVGDIRLKKNNYEKHYAESVKGRFTISRDDSKSITYLQMNSLRAEDTAVYYCAREGDYFDYWGQGTTVTVSS
VL: DIQLTQSPSSLSASVGDRVTITCRASESVDSFGATFMHWYQQKPGKAPKLLIYLASRLGSGVPSRFSGSGSGTDFTLTISSLQPEDFATYYCQQNNEDPYTFGQGTKLEIK
notes: Whole IgG, backbone hIgG1; also called HPAC 14-6; No. 6
B2: Humanized antibody 14 (HAPC-14) (antibody, V domains shown)
VH: B1 VH with F31N, K55S
VL: B1 VL with R57N, G59E
notes: also called Humab001-14; NO; 14 antibody
B3: HAPC-14-9 (antibody, V domains shown)
VH: B1 VH with Y104T
VL: B1 VL
notes: Whole IgG, backbone hIgG1; also called HPAC 14-9
B4: HAPC-14-10 (antibody, V domains shown)
VH: B1 VH with F31N, Y104T
VL: B1 VL with Q93V
notes: Whole IgG, backbone hIgG1; also called HPAC 14-10
B5: HAPC-14-3 (antibody, V domains shown)
VH: B1 VH
VL: B1 VL with Q93V
notes: Whole IgG, backbone hIgG1; also called HPAC 14-3; No. 3
B6: HAPC-14-7 (antibody, V domains shown)
VH: B1 VH with K55S
VL: B1 VL with G59E
notes: Whole IgG, backbone hIgG1; also called HPAC 14-7
B7: Humanized antibody 16 (HAPC-16) (antibody, V domains shown)
VH: B1 VH with F31N, K55S
VL: B1 VL with D1N, Q3V, A47P, R57N, G59E, G72R
notes: also called Humab001-16; NO; 16 antibody
B8: Humanized antibody 13 (HAPC-13) (antibody, V domains shown)
VH: B1 VH with F31N, K55S
VL: B1 VL with L4M, R57N, G59E
notes: also called Humab001-13; NO; 13 antibody
B9: HAPC1573 (antibody, from another filing, V domains shown)
VH: EVKLEESGGGLVQPGGSMKLSCVASGFTFSNYYLNWVRQSPEKGLEWVADIRLKSNNYEKHYAESVKGRFTISRDDSKSSVYLQMNNLRAEDTGIYYCIREGDYFDYWGQGTTLTVSS
VL: NIVLTQSPASLAVSLGQRATISCRASESVDSFGATFMHWYQQKPGQPPKLLIYLASNLESGVPARFSGSGSRTDFTLTIDPVEADDAATYYCQQNNEDPYTFGGGTKLEIKR

The binders below were run against T1, human activated protein C (human, UniProt P04070 43-197; P04070 212-461) (assay: Octet BLI, antibody on Protein A sensor, huAPC 3.13-50 nM, 1:1 model, 25 C, pH 7.4).
T1 construct: In the plasma assays aPC is generated in human plasma with Protac; also called aPC; haPC
Protocol: (§1) Assay method: Octet analysis was carried out at 25° C. using a Protein A Octet biosensor in 1× Kinetics buffer. During the kinetics assay, the baseline step assay was run in 1× Kinetics buffer for 120 seconds, and then run for 240 seconds after the antibody was loaded to the biosensor. Next, the baseline 2 step assay was run in 1× Kinetics buffer for 120 seconds. […] The 1× Kinetics buffer was used as a blank control to show the natural dissociation of the antibody in the buffer. 10 mM glycine at pH 1.5 was used for the regeneration step. Octet data analysis software was used to calculate binding kinetics, and a 1:1 binding model was used for curve fitting.
The affinities of the mutant antibodies were assayed at pH 7.4.

Binder | Kd [nM] | koff [s⁻¹] | kon [M⁻¹ s⁻¹]
B1 | 3.64 | 0.00108 | 297000
B2 | 254 | 0.0162 | 64000
B3 | 9.69 | 0.00238 | 245000
B4 | 19 | 0.00428 | 225000
B5 | 2.67 | 0.000854 | 320000
B6 | 7.72 | 0.00197 | 256000

These binders were tested against T2, human protein C (human, UniProt P04070 43-461) (assay: ELISA on plate-coated HuPC (1 ug/ml), OD450).
T2 construct: Zymogen form, coated on ELISA plates; also called hPC; PC

Binder | binding result
B7 | no binding (tested: 100 nM)
B8 | no binding (tested: 100 nM)

The binders below were run against T1, human activated protein C (assay: cell-based or functional assay).

Binder | Mean clotting time (s), FIX-deficient plasma, APC-antibody concentration 0.5 ug/ml [s] | Mean clotting time (s), FIX-deficient plasma, APC-antibody concentration 1 ug/ml [s] | Mean clotting time (s), FIX-deficient plasma, APC-antibody concentration 5 ug/ml [s] | Mean clotting time (s), FVIII-deficient plasma, APC-antibody concentration 0.5 ug/ml [s] | Mean clotting time (s), FVIII-deficient plasma, APC-antibody concentration 1 ug/ml [s] | Mean clotting time (s), FVIII-deficient plasma, APC-antibody concentration 5 ug/ml [s] | Mean clotting time (s), FIX-deficient plasma, APC-antibody concentration 0.05 ug/ml [s] | Mean clotting time (s), FIX-deficient plasma, APC-antibody concentration 0.1 ug/ml [s] | Mean clotting time (s), FVIII-deficient plasma, APC-antibody concentration 0.05 ug/ml [s] | Mean clotting time (s), FVIII-deficient plasma, APC-antibody concentration 0.1 ug/ml [s]
B1 | 181 | 198 | 180 | 182 | 187 | 162 |  |  |  | 
B2 | 457 | 415 | 310 | 574 | 457 | 324 |  |  |  | 
B3 | 170 |  |  | 182 |  |  | 670 | 611 | 262 | 217
B4 | 331 | 158 |  | 254 |  |  | 733 | 596 | 415 | 309
B8 | 502 | 402 | 326 | 629 | 546 | 301 |  |  |  | 
B5 | 208 | 200 | 185 | 205 | 188 | 176 |  |  |  | 
B6 | 241 | 145 | 146 | 297 | 198 | 176 |  |  |  | 

These binders were tested against T2, human protein C (assay: ELISA on plate-coated HPC, OD450).
Protocol: (§2) The binding abilities of the anti-aPC monoclonal antibodies to haPC/hPC were assayed by Elisa. […] 1. ELISA plates were coated with haPC/hPC (1 ug/mL in PBS), 100 μL/well, at 4° C. overnight. […] 2. The plates were washed 3 times with PBST (0.1% Tween 20), 200 μL/well. […] 3. The plates were blocked with 2% BSA (PBS solution), 200 μL/well, at room temperature for 1 hour. […] 4. The plates were washed 3 times with PBST (0.1% Tween 20), 200 μL/well. […] 5. The plates were incubated with anti-aPC monoclonal antibody as primary antibody (diluted from 10 μg/mL in 2% BSA), 100 μL/well, at room temperature for 1 hour. […] 6. The plates were washed 3 times with PBST (0.1% Tween 20), 200 μL/well. [0200] 7. The plates were incubated with anti-hIgG-Fc antibody-HRP (diluted 5000-fold in 2% BSA buffer) at room temperature for 1 hour. [0201] 8. The plates were washed 6 times with PBST (0.1% Tween 20), 200 μL/well. [0202] 9. The plates were incubated with a TMB substrate (prepared from solutions A and B at 1:1 (v/v)), 100 μL/well, away from light for 10 minutes. […] 10. The reaction was quenched with HCl (1 M), 100 μL/well, and OD450 was read.

Binder | binding result
B1 | no binding (tested: 10^2 nM)
B2 | no binding (tested: 10^2 nM)
B3 | no binding (tested: 10^2 nM)
B4 | no binding (tested: 10^2 nM)
B5 | no binding (tested: 10^2 nM)
B6 | no binding (tested: 10^2 nM)

Each binder was assayed against human activated protein C (human) (UniProt P04070) (assay: cell-based or functional assay).

Binder | Mean clotting time (s), FIX-deficient plasma, APC-antibody concentration 0.5 ug/ml [s] | Mean clotting time (s), FIX-deficient plasma, APC-antibody concentration 1 ug/ml [s] | Mean clotting time (s), FIX-deficient plasma, APC-antibody concentration 5 ug/ml [s] | Mean clotting time (s), FVIII-deficient plasma, APC-antibody concentration 0.5 ug/ml [s] | Mean clotting time (s), FVIII-deficient plasma, APC-antibody concentration 1 ug/ml [s] | Mean clotting time (s), FVIII-deficient plasma, APC-antibody concentration 5 ug/ml [s] | antibody concentration needed to inhibit the anticoagulant activity of aPC, Protac-induced APTT in factor-deficient human plasma [µg/mL]
B9 | 584 | 567 | 404 | 600 | 629 | 389 | > 100

Each binder was assayed against T1, human activated protein C (assay: ELISA, plate coated with haPC 1 ug/mL, anti-hIgG-Fc-HRP).
Protocol: as §2

Binder | EC50 [nM] | Span
B1 | 0.0821 | 1.85
B2 | 0.22 | 0.291
B3 | 0.0761 | 1.07
B4 | 0.28 | 0.745
B5 | 0.0618 | 1.61
B6 | 0.13 | 1.58

Each binder was assayed against T1, human activated protein C (assay: Octet BLI).
Protocol: as §1

Binder | fold increase of affinity against the unmutated No. 14 antibody HAPC-14 [fold]
B1 | ~100
B5 | ~100

Each binder was assayed against T2, human protein C (assay: ELISA, plate coated with hPC 1 ug/mL, anti-hIgG-Fc-HRP).
Protocol: as §2

Binder | Span
B1 | ~0.0133
B2 | ~0.0387
B3 | 0.012
B4 | ~0.00145
B5 | ~0.267
B6 | ~0.00661

These binders were tested against T1, human activated protein C (assay: ELISA on plate-coated APC (1 ug/ml), OD 450; EC50 from the table drawn beside the curves; no unit in the table, axis Ab Conc.(nM)).

Binder | EC50 [nM]
B2 | 0.249
B7 | 0.172
B8 | 0.199
